Laboratory results from paper PMC4278327, “Pathways driving the endocytosis of mutant and wild-type EGFR in cancer” (Oncoscience, 2014).

Molecular target: T1, wild-type EGFR (epidermal growth factor receptor) (UniProt P00533 25-1210)
T1 construct: EGFR, wild type, expressed from the plasmid pcDNA3.1-EGFR; Probably the whole human receptor, expressed in cells that have no EGFR of their own; source: MDA-MB-435, transfected (pcDNA3.1-EGFR), in lysate
Experiment: co-IP; lysates of MDA-MB-435 cells transfected with EGFR plasmids, immunoprecipitated with the anti-EGFR antibody IMC-C225; western blot with the anti-S2R^PGRMC1 antibody PGR-UK1; representative of three independent experiments
Details: partners not purified

B1: S2R^PGRMC1 (sigma-2 receptor / progesterone receptor membrane component 1) (natural protein)
chain: not shown
notes: PGRMC1 (progesterone receptor membrane component 1), endogenous in MDA-MB-435 human breast cancer cells, detected with the antibody PGR-UK1; source: endogenous, MDA-MB-435 lysate
B1 was tested, and the “fold co-precipitated, wild-type EGFR against the EGFR-Δ747-749/A750P mutant” value was 2.4 fold.
